Laboratory results as given in patent publication US20060199251.

T1: Ac-IEPD-pNA (N-acetyl-L-isoleucyl-L-glutamyl-L-prolyl-L-aspartyl-p-nitroaniline)
T1 chain: IEPD

B1: GrB-H6 C228F (activated human Granzyme B variant, Cys228 (chymotrypsinogen numbering) to Phe, C-terminal hexa-His tag) (protein)
chain: MGSIEPDIIGGHEAKPHSRPYMAYLMIWDQKSLKRCGGFLIQDDFVLTAAHCWGSSINVTLGAHNIKEQEPTQQFIPVKRPIPHPAYNPKNFSNDIMLLQLERKAKRTRAVQPLRLPSNKAQVKPGQTCSVAGWGQTAPLGKHSHTLQEVKMTVQEDRKCESDLRHYYDSTIELCVGDPEIKKTSFKGDSGGPLVCNKVAQGIVSYGRNNGMPPRAFTKVSSFVHWIKKTMKRYLNSHHHHHH
B2: purified bovine blood clotting factor Xa (protein)
chain: ANSFLEEVKQGNLERECLEEACSLEEAREVFEDAEQTDEFWSKYKDGDQCEGHPCLNQGHCKDGIGDYTCTCAEGFEGKNCEFSTREICSLDNGGCDQFCREERSEVRCSCAHGYVLGDDSKSCVSTERFPCGKFTQGRSRRWAIHTSEDALDASELEHYDPADLSPTESSLDLLGLNRTEPSAGEDGSQVVRIVGGRDCAEGECPWQALLVNEENEGFCGGTILNEFYVLTAAHCLHQAKRFTVRVGDRNTEQEEGNEMAHEVEMTVKHSRFVKETYDFDIAVLRLKTPIRFRRNVAPACLPEKDWAEATLMTQKTGIVSGFGRTHEKGRLSSTLKMLEVPYVDRSTCKLSSSFTITPNMFCAGYDTQPEDACQGDSGGPHVTRFKDTYFVTGIVSWGEGCARKGKFGVYTKVSNFLKWIDKIMKARAGAAGSRGHSEAPATWTVPPPLPL

Tests used:
[1] = molecular target: T1, Ac-IEPD-pNA …

Chain of H6-IEGR-RAP (P30533 whole entry, the tested form may be a part): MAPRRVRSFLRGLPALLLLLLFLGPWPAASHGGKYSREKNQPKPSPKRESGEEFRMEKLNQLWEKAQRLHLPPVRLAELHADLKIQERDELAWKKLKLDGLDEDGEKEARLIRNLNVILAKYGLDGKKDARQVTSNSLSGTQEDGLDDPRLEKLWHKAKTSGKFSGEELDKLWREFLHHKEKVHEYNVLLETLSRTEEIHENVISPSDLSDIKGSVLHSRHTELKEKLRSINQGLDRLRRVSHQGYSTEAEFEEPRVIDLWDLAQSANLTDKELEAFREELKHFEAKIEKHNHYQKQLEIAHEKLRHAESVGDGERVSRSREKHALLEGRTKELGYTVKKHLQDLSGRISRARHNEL

Protein | KM (µM), colorimetric assay, Lineweaver-Burk plot, 100 mM HEPES pH 7.75, 20 nM enzyme [1] | kcat [1] | kcat/KM (10^4 s^-1M^-1) [1] | cleavage of fusion protein, SDS PAGE, 6 hours, protease:fusion protein 1:500 (H6-TripUB IEPD↓EG) | time to complete cleavage, protease to substrate ratio 1:500 (H6-TripUB IEPD↓EG) | fusion protein cleaved, SDS PAGE, 48 hours at 21° C., protease:fusion protein 1:500 (H6-TripUB IEPD↓EP) | fusion protein cleaved, SDS PAGE, 50 hours at 21° C., protease:fusion protein 1:500 (H6-TripUB IEPD↓EP) | cleavage of fusion protein, SDS PAGE, 24 hours at 23° C., protease:fusion protein 1:500 (H6-TripUB IEPD↓IV) | cleavage of fusion protein, SDS PAGE, 96 hours at 23° C., protease:fusion protein 1:500 (H6-TripUB IEPD↓SP) | fusion protein cleaved, SDS PAGE, 48 hours at 21° C., protease:fusion protein 1:500 (H6-TripUB IEPD↓SP) | cleavage of fusion protein, SDS PAGE, 24 hours at 23° C., protease:fusion protein 1:500 (H6-TripUB IEPD↓TQ) | cleavage by immobilized enzyme, non-reducing SDS-PAGE, room temperature over night (H6-TripUB IQAD↓SG) | cleavage by immobilized enzyme, non-reducing SDS-PAGE, room temperature over night (H6-TripUB IQAD↓SP) | fusion protein cleaved, SDS PAGE, 6 hours at 23° C., protease:substrate 1:1000 (H6Ubi-IEPD-ApoA1) | cleavage of fusion protein, SDS PAGE, ½ hour at 23° C., protease:fusion protein 1:1000 (H6-IEGR-RAP) | degradation of fusion protein, SDS PAGE, 27 hours at 23° C. (H6-IEGR-RAP) | fusion protein cleaved, SDS PAGE, 6 hours at 23° C., protease:substrate 1:1000 (H6Ubi-IEGR-ApoA1) | time to complete cleavage, 23° C., protease:substrate 1:1000 (H6Ubi-IEGR-ApoA1)
B1 | 27 µM | 4.85 s⁻¹ | 180000 s^-1M^-1 | after only 6 hours the cleavage has been completed | it takes less than 5 hours for GrB-H6 C228F to complete the cleavage of H6-TripUbi IEPD↓EG | after 48 hours at 21 °C approximately 35-40% has been cleaved | after 50 hours at 21 °C approximately 40% has been cleaved | This is also the case for the cleavage of H6-TripUB IEPD↓IV (app. 100% completed after only 24 hours) | the cleavage is almost 100% complete after 96 hours | After 48 hours approximately 40% has been cleaved at 21 °C | this is app. 100% completed after only 24 hours | For all twelve cleavage experiments the fusion proteins are cleaved to give a single product corresponding to TripUbi moiety from which the H6 fusion partner has been cleaved off | For all twelve cleavage experiments the fusion proteins are cleaved to give a single product corresponding to TripUbi moiety from which the H6 fusion partner has been cleaved off | The GrB substrate, H6Ubi-IEPD-ApoA1, is approximately 100% cleaved after only 6 hours incubation at 23 °C | – | – | – | –
B2 | – | – | – | – | – | – | – | – | – | – | – | – | – | – | After only ½ hour almost all of the fusion protein had been cleaved to give the correct product for both incubations | all of the fusion protein had been degraded to give a variety of smaller fragments after 27 hours, and there is no correctly cleaved product left | only a small fraction of the FXa substrate, H6Ubi-IEGR-ApoA1, has been cleaved after 6 hours | FXa requires more than 48 hours to complete the cleavage of the FXa substrate
